Experimental data taken from publication PMC4434712 (Proceedings of the National Academy of Sciences of the …, 2015).
Where two headings read alike, the source gives them in different places.

Assays:
Test in all cases: crystal structure
[1] = target: T1, VZV glycoprotein gH (ectodomain, as in the gHgL crystal structures) (varicella-zoster virus, UniProt P09260)
VZV glycoprotein gL [2] = target: T2, VZV glycoprotein gL (varicella-zoster virus, UniProt P09308)
VZV glycoprotein gL [3] = target: T2, VZV glycoprotein gL; remark: listed apart in the source
[4] = target: T1, VZV glycoprotein gH (ectodomain, as in …); remark: listed apart in the source

T1 sequence (P09260 18-795): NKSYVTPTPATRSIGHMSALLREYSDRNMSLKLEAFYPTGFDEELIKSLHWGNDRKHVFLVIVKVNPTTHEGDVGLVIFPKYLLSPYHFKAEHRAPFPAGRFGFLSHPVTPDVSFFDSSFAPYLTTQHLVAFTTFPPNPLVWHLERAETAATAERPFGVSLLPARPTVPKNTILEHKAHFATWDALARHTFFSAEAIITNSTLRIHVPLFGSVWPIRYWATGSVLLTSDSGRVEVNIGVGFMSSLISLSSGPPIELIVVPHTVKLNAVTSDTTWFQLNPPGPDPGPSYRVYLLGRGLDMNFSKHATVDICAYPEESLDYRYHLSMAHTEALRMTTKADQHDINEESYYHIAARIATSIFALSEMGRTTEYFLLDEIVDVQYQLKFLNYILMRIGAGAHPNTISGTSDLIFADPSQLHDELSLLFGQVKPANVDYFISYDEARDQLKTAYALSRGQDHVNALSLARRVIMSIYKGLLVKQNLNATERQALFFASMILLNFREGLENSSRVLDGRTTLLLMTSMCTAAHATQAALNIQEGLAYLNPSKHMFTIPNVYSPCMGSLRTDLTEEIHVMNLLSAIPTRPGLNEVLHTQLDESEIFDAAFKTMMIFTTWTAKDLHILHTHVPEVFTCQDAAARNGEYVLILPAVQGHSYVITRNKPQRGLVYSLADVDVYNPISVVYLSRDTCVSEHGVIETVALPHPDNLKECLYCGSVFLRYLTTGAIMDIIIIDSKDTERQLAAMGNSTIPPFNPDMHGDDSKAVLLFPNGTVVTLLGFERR
T2 sequence (P09308 22-159): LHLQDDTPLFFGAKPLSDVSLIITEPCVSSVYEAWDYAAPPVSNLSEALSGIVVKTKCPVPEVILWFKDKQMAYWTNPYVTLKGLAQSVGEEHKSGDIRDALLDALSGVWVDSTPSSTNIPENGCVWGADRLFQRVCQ

B1: Fab-RC, Fab fragment of the human monoclonal antibody IgG-RC (Fab, V domains shown)
VH: QVQLVQSGAEMKKPGASVKVSCKASGYTFIGYHLHWVRQAPGQGLEWMGWINPNSGETNYAQKFQDWVTMTRDTSINTAYMELRLRSDDTAVYYCARGGMTMVRGVMMDWGQGTLVTVSS
VL: DIQMTQSPSFLSASVGDRVTITCRASQGLDNFLAWYQQKPGKAPKLLIYAASTLQRGVPSRFGGSGSGTEFTLTISSLQPEDFATYYCQQLNSYSLTFGPGTKVEIK
B1: binds [1]; binds (VZV glycoprotein gL [2]).

B2: Fab-94, Fab fragment of the human monoclonal antibody IgG-94 (Fab, V domains shown)
VH: EVQLVESGGGVVQPGRSLRLSCGASGFTFNTYAMHWVRQAPGKGVEWVAVVSDGGGNRYYAASVKGRFTISRDNSKNTLFLQLNTLRPEDTAVYYCARSRGNHYYYGMDVWGRGTTVTVSS
VL: DIQMTQSPSSVSASVGDRVTITCRASQGISSWLAWYQQKPGKAPKLLIYAASSLQSGVPSRFSGSGSGTDFTLTISSLQPEDFATYYCQQANNFPLTFGGGTKVEIK
B2: binds (VZV glycoprotein gL [3]); binds [4].
